Measured values from the Human Domainome abundance scans (Beltran et al. 2025).
± gives the uncertainty stated by the source.

B1: Zinc finger MYM-type protein 3, residues 589 to 668; numbered along this chain, Q14202 (parent)
chain: LSCHYCHSLFSGKPEVLDWQDQVFQFCCRDCCEDFKRLRGVVSQCEHCRQEKLLHEKLRFSGVEKSFCSEGCVLLYKQDF

Variants of: B1
Test: abundance fitness (aPCA) (normalised: wild type 0, dead -1); higher = more abundant; growth selection in yeast, the domain comes from the species named
Conditions: Homo sapiens

Abundance fitness: each site, then its substitutions
E33: C -0.151 ± 0.054, N -0.018 ± 0.088, G -0.157 ± 0.04, F -0.103 ± 0.11, L -0.171 ± 0.042, Y -0.173 ± 0.088, R -0.193 ± 0.04, H 0.124 ± 0.064, W -0.254 ± 0.047, A -0.037 ± 0.04, P -0.811 ± 0.091, K -0.353 ± 0.066, V -0.081 ± 0.042, D 0.072 ± 0.056, T -0.093 ± 0.058, Q -0.038 ± 0.044
D30: C 0.008 ± 0.053, K 0.104 ± 0.062, Y -0.164 ± 0.091, L -0.012 ± 0.041, S 0.055 ± 0.043, E 0.014 ± 0.046, F -0.263 ± 0.076, M 0.3 ± 0.045, A 0.027 ± 0.043, V 0.109 ± 0.04, Q -0.036 ± 0.054, N -0.069 ± 0.1, T 0.131 ± 0.044, G 0.057 ± 0.038, W -0.227 ± 0.05, I -0.243 ± 0.088
R29: M 0.235 ± 0.05, G 0.008 ± 0.04, P 0.068 ± 0.056, F 0.095 ± 0.056, K 0.002 ± 0.046, H 0.275 ± 0.058, T -0.002 ± 0.046, D 0.082 ± 0.053, E 0.013 ± 0.045, A 0.069 ± 0.042, Y 0.26 ± 0.069, N 0.206 ± 0.075, S 0.009 ± 0.044, I 0.014 ± 0.055, C 0.08 ± 0.05, W -0.049 ± 0.047
S43: C -0.062 ± 0.16, A -0.076 ± 0.097, F -0.144 ± 0.3, L -0.576 ± 0.19, V 0.286 ± 0.11, R -0.174 ± 0.1, W -0.889 ± 0.29, G 0.59 ± 0.08, P -0.496 ± 0.3, Q -0.339 ± 0.18, D -0.235 ± 0.23, M 0.105 ± 0.11
L53: A -0.313 ± 0.14
D34: Y 0.105 ± 0.083, M 0.17 ± 0.044, V -0.079 ± 0.058, P -0.384 ± 0.076, W -0.1 ± 0.054, E -0.01 ± 0.045, F -0.192 ± 0.071, I -0.18 ± 0.11, S -0.164 ± 0.045, Q -0.136 ± 0.05, H -0.057 ± 0.071, R -0.093 ± 0.042, A 0.064 ± 0.047, T -0.178 ± 0.056, G 0.024 ± 0.04, K -0.008 ± 0.063
C48: W -0.329 ± 0.16, P 0.207 ± 0.23, E -1.04 ± 0.31, R -0.553 ± 0.12, V -0.741 ± 0.18, A -0.845 ± 0.16, S -0.561 ± 0.43, K 0.19 ± 0.34, L -0.578 ± 0.23, T -1.05 ± 0.46
R37: K -0.343 ± 0.21, C -0.374 ± 0.21, V 0.097 ± 0.1, G -0.045 ± 0.061, M -0.086 ± 0.22, W -0.065 ± 0.27, E -0.084 ± 0.18, D -0.238 ± 0.19, Q 0.254 ± 0.12, S 0.123 ± 0.091, P -0.097 ± 0.13, A 0.057 ± 0.16, L 0.095 ± 0.06
F35: Q -0.421 ± 0.071, G -0.317 ± 0.042, L -0.641 ± 0.055, D -0.549 ± 0.092, E -0.157 ± 0.045, T -0.607 ± 0.077, M -0.071 ± 0.047, Y -0.177 ± 0.1, V -0.587 ± 0.048, R -0.726 ± 0.052, K -0.529 ± 0.063, N -0.924 ± 0.39, W -0.118 ± 0.045, S -0.411 ± 0.055, C -0.467 ± 0.082, H -0.219 ± 0.067, P -0.842 ± 0.077, A -0.079 ± 0.041, I -0.624 ± 0.084
V41: T -0.243 ± 0.41, L -0.181 ± 0.32, I 0.195 ± 0.24, R 0.003 ± 0.14, A -0.208 ± 0.41, K 0.398 ± 0.39, G 0.056 ± 0.098, N 0.317 ± 0.31, E 0.079 ± 0.13
Q50: C -0.013 ± 0.24, E -0.242 ± 0.11, W -0.582 ± 0.19, Y -0.312 ± 0.21, S -0.356 ± 0.24, A -0.641 ± 0.18, K -0.071 ± 0.21, L -0.542 ± 0.16, M 0.172 ± 0.5, T -0.293 ± 0.3, R 0.01 ± 0.11, G -0.436 ± 0.094, P -0.48 ± 0.24
R39: K -0.146 ± 0.33, A -0.417 ± 0.18, G 0.424 ± 0.11, E -0.159 ± 0.39, L -0.282 ± 0.32, M 0.032 ± 0.39, Q 0.288 ± 0.14, C 0.272 ± 0.21
C32: M 0.214 ± 0.047, Y 0.067 ± 0.059, G -0.253 ± 0.042, A -0.026 ± 0.042, F -0.237 ± 0.09, T -0.108 ± 0.047, E -0.203 ± 0.055, Q -0.08 ± 0.055, P -0.574 ± 0.097, R -0.176 ± 0.04, D -0.521 ± 0.11, W -0.403 ± 0.051, N -0.239 ± 0.14, S -0.227 ± 0.047, V 0.038 ± 0.041, L -0.027 ± 0.042, K 0.157 ± 0.044, I -0.113 ± 0.08
